# Measured values as given in paper PMC8038991, “R-catcher, a potent molecular tool to unveil the arginylome” (Cellular and Molecular Life Sciences: CMLS, 2021).
# Entries after “also recorded” stand apart in the source; their conditions may differ.
# Assays:
# R-catcher [1] = experiment: Small-scale R-catcher pulldown of known arginylated proteins; type: binding, human; details: HEK293 cells, R-catcher on tactin beads, immunoblot, Fig. 4d
# Protocol: (§1) For small-scale R-catcher pull-down assays, 300 µg of purified R-catcher was conjugated with 120 µl of Strep-Tactin sepharose resin by incubating overnight at 4 °C. To test R-catcher’s ability to capture known arginylated proteins, such as R-BiP, R-PDI, R-nsP4 and R-RGS4, plasmids encoding Ub-X-(BiP, PDI and nsP4) or MX-RGS4 (X = Arg or Val) were transiently transfected into HEK293 cells. After 24 h, cells were treated with 10 µM MG132 and 100 nM thapsigargin for another 24 h. Cells were harvested and lysed in hypotonic buffer and 300 µg total protein was incubate with 25 µl R-catcher-sepharose resin in binding buffer (20 mM HEPES pH 7.9, 0.05% Tween 20, 10% glycerol, 0.2 M KCl, protease inhibitor and phosphatase inhibitor) for 3 h with gentle rotation at 4 °C. After three washes with binding buffer, bound proteins were dissociated with 2 × SDS sample buffer and boiling at 100 °C and subjected to immunoblotting using anti-myc or flag antibodies.
# R-catcher [2] = experiment: R-catcher pulldown of P1' site Gly mutants; type: binding, human; details: E20 SERPINH1, E30 (printed) PRDX4, D23 CLUS, D30 FBLN1 to Gly, Fig. 6e
# Protocol: as §1
# (§2) Plasmids encoding the proteins were transiently transfected to HeLa cells for 24 h and stimulated with 5 µM MG132 plus 100 nM TG for another 24 h. Cell lysates were incubated with R-catcher immobilized on tactin beads for 3 h. After wash, bound proteins were eluted with 2 × SDS sample buffer followed by boiling at 100 °C for 10 min and visualized by western blot analysis. b R-catcher pulldown assays to validate ATE1-dependent arginylation of […]1, PRDX4, FBLN1 and CLUS. […] Cell lysates were subjected to R-catcher pulldown, and bound proteins were detected by western blot analysis. c R-catcher pull-down assays to evaluate if the arginylation of FBNL1, SERPINH1, CLUS and PRDX4 is induced in response to MG132 plus thapsigargin. d X-peptide pulldown assays to confirm no interaction of R-catcher with Nt-Ala19 of SERPINH1 peptides and Nt-Trp38 of PRDX4 peptides. […] Bound GST-ZZ (N132D) was detected by immunoblotting. e Identification of arginylated sites employing mutational analysis. […]
# R-catcher [3] = experiment: R-catcher pulldown in +/+ and ATE1-/- MEFs; type: binding; details: +/+ versus ATE1-/- MEFs, MG132 plus TG, 9 h, Fig. 6b
# Protocol: as §1, §2
# R-catcher [4] = experiment: R-catcher pulldown of putative arginylated ER proteins, HeLa; type: binding, human; details: 5 µM MG132 plus 100 nM TG, RA competition, Fig. 6a
# Protocol: as §1
# Plasmids encoding the proteins were transiently transfected to HeLa cells for 24 h and stimulated with 5 µM MG132 plus 100 nM TG for another 24 h. Cell lysates were incubated with R-catcher immobilized on tactin beads for 3 h. After wash, bound proteins were eluted with 2 × SDS sample buffer followed by boiling at 100 °C for 10 min and visualized by western blot analysis. b R-catcher pulldown assays to validate ATE1-dependent arginylation of […]1, PRDX4, FBLN1 and CLUS. Plasmids encoding […]1, PRDX4, FBLN1 and CLUS were transiently transfected into + / + and ATE1^−/− MEFs for 24 h and stimulated with 5 µM MG132 plus 100 nM TG for another 9 h. Cell lysates were subjected to R-catcher pulldown, and bound proteins were detected by western blot analysis. c R-catcher pull-down assays to evaluate if the arginylation of FBNL1, SERPINH1, CLUS and PRDX4 is induced in response to MG132 plus thapsigargin. d X-peptide pulldown assays to confirm no interaction of R-catcher with Nt-Ala19 of SERPINH1 peptides and Nt-Trp38 of PRDX4 peptides. X-peptides where X is A19 (SignalP predicted P1’ site), E20 (next possible P1’ site predicted by PrediSi) or R19 (Arginylated form of Glu) for SERPINH1 and W38 (SignalP predicted P1’ site), E39 (next possible P1’ site predicted by PrediSi) or R38 (Arginylated form) for PRDX4. Biotinylated X-peptides immobilized on streptavidin agarose beads were incubated with affinity-purified GST-ZZ ([…]). Bound GST-ZZ (N132D) was detected by immunoblotting. e Identification of arginylated sites employing mutational analysis. Predicted P1’ sites of SERPINH1, PRDX4, CLUS and FBLN1 were substituted to Gly, and the inhibitory effect of the mutation on binding with R-catcher was examined by performing R-catcher pulldown assays
# [5] = Identification of arginylation sites, GelNrich and in-gel digestion LC-MS/MS
# Description: Upon separation of the immunoprecipitated protein by SDS-PAGE and staining with Coomassie Blue, the corresponding protein band was excised, half of which was subjected to GelNrich and the other half to conventional in-gel digestion GelNrich is an N-terminal peptide enrichment method based on in-gel digestion. The method includes in-gel protein level labeling of primary amines using d6-acetic anhydride and post-digestion negative selection of labeled N-terminal peptide(s) using N-hydroxysuccinimide activated agarose beads. Peptides recovered from GelNrich or in-gel digestion were dried in a vacuum evaporator and reconstituted in 0.1% formic acid. An aliquot was injected from a cooled (10 °C) auto-sampler into a reversed-phase EASY-Spray column (25 cm × 75 μm, Thermo Fisher Scientific) on an Eksigent nanoLC-ultra 1D plus system (Danaher Corporation) at a flow rate of 300 nL/min. Prior to use, the column was equilibrated with 96% buffer A (0.1% formic acid in water) and 4% buffer B (0.1% formic acid in acetonitrile). The peptides were eluted with a linear gradient from 4 to 35% buffer B over 60 min and 35–80% buffer B over 2 min followed by an organic wash and aqueous re-equilibration at a flow rate of 300 nL/min with a total run time of 96 min. The HPLC system was coupled to a Q-Exactive mass spectrometer (Thermo Fisher Scientific) operated in a data-dependent acquisition (DDA) mode. Survey full-scan MS spectra (m/z 400–1800) were acquired with a resolution of 70,000. The MS/MS spectra of the 12 most intense ions from the MS1 scan with charge states 1 ~ 5 were acquired with the following options: resolution, 17,500; automatic gain control (AGC) target, 5E4; isolation width, 2.0 m/z; normalized collision energy, 27%; dynamic exclusion duration, 60 s; and ion selection threshold, 4.2E2 counts. Source ionization parameters were as follow: spray voltage, 1.9 kV; capillary temperature, 275 °C; and s-lens level, 50.0. […]
Molecule,"pulldown by R-catcher, overexpressed substrates (R-catcher [1])",effect of Gly substitution of P1' site on interaction with R-catcher (R-catcher [2]),"capture by R-catcher, ATE1 dependence (R-catcher [3])","binding with R-catcher, Nt-Arg dependence (R-catcher [4])",arginylation detected by mass spectrometry [5]
"RGS4: ATE1 model substrate RGS4 (2nd oxidized Cys) (protein, oxidized Cys as 2nd residue; left off: myc, end not stated, kept | His, end not stated, state not stated) RCKGLAGLPASCLRSAKDMKHRLGFLLQKSDSCEHNSSHNKKDKVVICQRVSQEEVKKWAESLENLISHECGLAAFKAFLKSEYSEENIDFWISCEEYKKIKSPSKLSPKAKKIYNEFISVQATKEVNLDSCTREETSRNMLEPTITCFDEAQKKIFNLMEKDSYRRFLKSRFYLDLVNPSSCGAEKQKGAKSSADCASLVPQCA",could pulldown,–,–,–,–
"PRDX4: Peroxiredoxin-4 (protein, UniProt Q13162 38-271, looked up) Peroxiredoxin-4: WETEERPRTREEECHFYAGGQVYPGEASRVSVADHSLHLSKAKISKPAPYWEGTAVIDGEFKELKLTDYRGKYLVFFFYPLDFTFVCPTEIIAFGDRLEEFRSINTEVVACSVDSQFTHLAWINTPRRQGGLGPIRIPLLSDLTHQISKDYGVYLEDSGHTLRGLFIIDDKGILRQITLNDLPVGRSVDETLRLVQAFQYTDKHGEVCPAGWKPGSETIIPDPAGKLKYFDKLN",–,significantly impaired their interaction with R-catcher; also recorded: abolished their binding with R-catcher,captured by R-catcher in an ATE1-dependent manner,Nt-Arg-dependent binding with R-catcher,not detected
"SERPINH1: serpin H1 (protein, UniProt P50454 19-418, looked up) Serpin H1: AEVKKPAAAAAPGTAEKLSPKAATLAERSAGLAFSLYQAMAKDQAVENILVSPVVVASSLGLVSLGGKATTASQAKAVLSAEQLRDEEVHAGLGELLRSLSNSTARNVTWKLGSRLYGPSSVSFADDFVRSSKQHYNCEHSKINFRDKRSALQSINEWAAQTTDGKLPEVTKDVERTDGALLVNAMFFKPHWDEKFHHKMVDNRGFMVTRSYTVGVMMMHRTGLYNYYDDEKEKLQIVEMPLAHKLSSLIILMPHHVEPLERLEKLLTKEQLKIWMGKMQKKAVAISLPKGVVEVTHDLQKHLAGLGLTEAIDKNKADLSRMSGKKDLYLASVFHATAFELDTDGNPFDQDIYGREELRSPKLFYADHPFIFLVRDTQSGSLLFIGRLVRPKGDKMRDEL",–,significantly impaired their interaction with R-catcher; also recorded: abolished their binding with R-catcher,captured by R-catcher in an ATE1-dependent manner,Nt-Arg-dependent binding with R-catcher,not detected
"FBLN1: fibulin-1 (protein, UniProt P23142 30-703, looked up) Fibulin-1: DVLLEACCADGHRMATHQKDCSLPYATESKECRMVQEQCCHSQLEELHCATGISLANEQDRCATPHGDNASLEATFVKRCCHCCLLGRAAQAQGQSCEYSLMVGYQCGQVFQACCVKSQETGDLDVGGLQETDKIIEVEEEQEDPYLNDRCRGGGPCKQQCRDTGDEVVCSCFVGYQLLSDGVSCEDVNECITGSHSCRLGESCINTVGSFRCQRDSSCGTGYELTEDNSCKDIDECESGIHNCLPDFICQNTLGSFRCRPKLQCKSGFIQDALGNCIDINECLSISAPCPIGHTCINTEGSYTCQKNVPNCGRGYHLNEEGTRCVDVDECAPPAEPCGKGHRCVNSPGSFRCECKTGYYFDGISRMCVDVNECQRYPGRLCGHKCENTLGSYLCSCSVGFRLSVDGRSCEDINECSSSPCSQECANVYGSYQCYCRRGYQLSDVDGVTCEDIDECALPTGGHICSYRCINIPGSFQCSCPSSGYRLAPNGRNCQDIDECVTGIHNCSINETCFNIQGGFRCLAFECPENYRRSAATLQQEKTDTVRCIKSCRPNDVTCVFDPVHTISHTVISLPTFREFTRPEEIIFLRAITPPHPASQANIIFDITEGNLRDSFDIIKRYMDGMTVGVVRQVRPIVGPFHAVLKLEMNYVVGGVVSHRNVVNVHIFVSEYWF",–,significantly impaired their interaction with R-catcher; also recorded: abolished their binding with R-catcher,captured by R-catcher in an ATE1-dependent manner,Nt-Arg-dependent binding with R-catcher,the D30 residue
"LG3BP: lectin galactoside-binding soluble 3-binding protein (protein, left off: myc, end not stated, kept | His, end not stated, state not stated) VNDGDMRLADGGATNQGRVEIFYRGQWGTVCDNLWDLTDASVVCRALGFENATQALGRAAFGQGSGPIMLDEVQCTGTEASLADCKSLGWLKSNCRHERDAGVVCTNETRSTHTLDLSRELSEALGQIFDSQRGCDLSISVNVQGEDALGFCGHTVILTANLEAQALWKEPGSNVTMSVDAECVPMVRDLLRYFYSRRIDITLSSVKCFHKLASAYGARQLQGYCASLFAILLPQDPSFQMPLDLYAYAVATGDALLEKLCLQFLAWNFEALTQAEAWPSVPTDLLQLLLPRSDLAVPSELALLKAVDTWSWGERASHEEVEGLVEKIRFPMMLPEELFELQFNLSLYWSHEALFQKKTLQALEFHTVPFQLLARYKGLNLTEDTYKPRIYTSPTWSAFVTDSSWSARKSQLVYQSRRGPLVKYSSDYFQAPSDYRYYPYQSFQTPQHPSFLFQDKRVSWSLVYLPTIQSCWNYGFSCSSDELPVLGLTKSGGSDRTIAYENKALMLCEGLFVADVTDFEGWKAAIPSALDTNSSKSTSSFPCPAGHFNGFRTVIRPFYLTNSSGVD",–,–,–,no significant binding affinity for R-catcher,–
